Biological target: human CD160 (CD160 GPI isoform) on cells (human) (UniProt O95971)
Experiment: flow cytometry, percentage of labelled YT2C2 NK cells, 0.39-50 nM; the text means weaker binding

Sequence of human CD160 (CD160 GPI isoform) on cells (human) (O95971 25-159 limits assumed): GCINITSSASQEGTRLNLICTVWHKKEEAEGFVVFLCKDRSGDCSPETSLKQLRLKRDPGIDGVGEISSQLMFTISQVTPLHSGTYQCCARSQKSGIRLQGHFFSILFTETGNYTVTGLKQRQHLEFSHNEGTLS

B1: Fab CH1 IgG1 D12 (Fab)
heavy: QVQLVQSGAEVKKPGASVKVSCKASGYTFSDFWMQWIRQAPGQGLEWIGAIYPGDDDARVTQKFRGRATLTADKSTSTAYMELSSLRSEDTAVYYCARRGIAAVVGGFDYWGQGTTLTVSSASTKGPSVFPLAPSSKSTSGGTAALGCLVKDYFPEPVTVSWNSGALTSGVHTFPAVLQSSGLYSLSSVVTVPSSSLGTQTYICNVNHKPSNTKVDKRV
light: EIVLTQSPATLSLSPGERATLSCRASQSISNHLHWYQQKPGQAPRLLIKYASQSISGIPARFSGSGSGTDFTLTISSLEPEDFAVYFCQQSNSWPLTFGGGTKVEIKRTVAAPSVFIFPPSDEQLKSGTASVVCLLNNFYPREAKVQWKVDNALQSGNSQESVTEQDSKDSTYSLSSTLTLSKADYEKHKVYACEVTHQGLSSPVTKSFNRGEC
  EC50, factor against H7 IgG4 (ELB01101): 2 fold

From patent US20200109211A1
